Measured values from the Immune Epitope Database (IEDB).
pKd: −log10 of the molar value. Values belong to the sequence of their own block, whether it stands above or below them.

Key:
[1] = target: HLA-A*03:01; assay: IEDB peptide-MHC binding, purified MHC/competitive/fluorescence; filed as Kd, often an IC50 or EC50 that approximates it; ≥ and ≤ were set here for values at or beyond the usual limits of such assays; settings: source organism: Escherichia coli O139:H28 str. E24377A
[2] = target: HLA-B*54:01; assay: IEDB peptide-MHC binding, purified MHC/competitive/radioactivity; filed as Kd, often an IC50 or EC50 that approximates it; ≥ and ≤ were set here for values at or beyond the usual limits of such assays
[3] = target: HLA-B*07:02; assay: as above
[4] = target: HLA-B*53:01; assay: as above
[5] = target: HLA-B*35:01; assay: as above
[6] = target: HLA-B*51:01; assay: as above
[7] = target: HLA-B*40:01; assay: IEDB peptide-MHC binding, purified MHC/direct/fluorescence; filed as Kd, often an IC50 or EC50 that approximates it; ≥ and ≤ were set here for values at or beyond the usual limits of such assays
[8] = target: HLA-A*02:01; assay: as above; settings: source organism: Escherichia coli O157:H7
[9] = target: HLA-B*27:05; assay: as above
[10] = target: HLA-B*07:02; assay: as above; settings: source organism: Escherichia coli O157:H7
[11] = target: HLA-A*03:01; assay: as above
[12] = target: HLA-A*69:01; assay: as above
[13] = target: HLA-B*15:01; assay: as above
[14] = target: HLA-B*08:01; assay: as above
[15] = target: HLA-A*11:01; assay: as above
[16] = target: HLA-A*26:01; assay: as above; settings: source organism: Escherichia coli O157:H7
[17] = target: HLA-B*58:01; assay: as above; settings: source organism: Escherichia coli O157:H7
[18] = target: HLA-A*31:01; assay: as above
[19] = target: HLA-A*01:01; assay: as above
[20] = target: HLA-B*44:02; assay: as above
[21] = target: HLA-B*46:01; assay: as above
[22] = target: HLA-A*02:01; assay: IEDB peptide-MHC binding, purified MHC/competitive/radioactivity; filed as Kd, often an IC50 or EC50 that approximates it; ≥ and ≤ were set here for values at or beyond the usual limits of such assays
[23] = target: HLA-A*02:06; assay: as above
[24] = target: HLA-A*02:17; assay: as above
[25] = target: HLA-A*02:03; assay: as above; settings: source organism: Dengue virus 1 Brazil/97-11/1997
[26] = target: HLA-B*18:01; assay: IEDB peptide-MHC binding, purified MHC/direct/fluorescence; filed as Kd, often an IC50 or EC50 that approximates it; ≥ and ≤ were set here for values at or beyond the usual limits of such assays; settings: source organism: Mycobacterium tuberculosis str. Haarlem
[27] = target: HLA-B*57:01; assay: as above; settings: source organism: Mycobacterium tuberculosis str. Haarlem
[28] = source organism: SARS coronavirus Tor2
[29] = source organism: Escherichia coli O157:H7
[30] = source organism: Escherichia coli
[31] = source organism: Mammarenavirus lassaense
[32] = source organism: Vaccinia virus WR
[33] = source organism: Dengue virus 4 Philippines/H241/1956
[34] = source organism: Lassa virus Josiah
[35] = source organism: Dengue virus 3 Sri Lanka/1266/2000
[36] = source organism: Dengue virus 1 Singapore/S275/1990
[37] = source organism: Mycobacterium tuberculosis str. Haarlem

pKd [1]: 7.25
Sequence: ALALFDLLK

Sequence: APNAKEEIL
pKd [2, 28]: ≤ 4.63
pKd [3, 28]: 7.15
pKd [4, 28]: 4.73
pKd [5, 28]: 4.72
pKd [6, 28]: 5.58

pKd [7, 29]: ≤ 4.70
pKd [8]: ≤ 4.70
pKd [9, 29]: ≤ 4.70
pKd [10]: ≤ 4.70
pKd [11, 29]: ≤ 4.70
pKd [12, 29]: ≤ 4.70
pKd [13, 30]: 6.88
pKd [14, 29]: ≤ 4.70
pKd [15, 29]: ≤ 4.70
pKd [16]: ≤ 4.70
pKd [17]: ≤ 4.70
pKd [18, 30]: 6.21
pKd [19, 29]: ≤ 4.70
pKd [20, 29]: ≤ 4.70
pKd [21, 29]: ≤ 4.70
Sequence: AQRPAKYSY

Sequence: CPFLFLIVL
pKd [2, 31]: 5.82
pKd [3, 31]: ≤ 4.11
pKd [4, 31]: 4.85
pKd [5, 31]: 6.38
pKd [6, 31]: ≤ 4.26

Sequence: DPDHYKDYAF
pKd [2, 32]: 4.76
pKd [3, 32]: ≤ 4.16
pKd [4, 32]: 5.46
pKd [5, 32]: 6.05
pKd [6, 32]: ≤ 4.16

Sequence: DPRLVAEHRF
pKd [2, 32]: ≤ 4.16
pKd [3, 32]: ≤ 4.67
pKd [4, 32]: 5.92
pKd [5, 32]: 4.93
pKd [6, 32]: ≤ 4.16

Sequence: DPTFQLLNMI
pKd [2, 32]: ≤ 4.57
pKd [3, 32]: ≤ 4.16
pKd [4, 32]: 4.90
pKd [5, 32]: ≤ 4.16
pKd [6, 32]: 5.30

Sequence: FLDLPLPWAA
pKd [22, 33]: 8.38
pKd [23, 33]: 7.23
pKd [24, 33]: 6.30

Sequence: FPAIFSAEVL
pKd [2, 31]: 6.28
pKd [3, 31]: 5.86
pKd [4, 31]: 6.48
pKd [5, 31]: 7.25
pKd [6, 31]: 5.00

Sequence: FPYVMGDVEL
pKd [2, 31]: 6.31
pKd [3, 31]: 6.03
pKd [4, 31]: 7.33
pKd [5, 31]: 7.95
pKd [6, 31]: 6.52

Sequence: GLVECNNHY
pKd [13, 34]: 6.74
pKd [21, 34]: ≤ 4.70

Sequence: HMIAGVFFT
pKd [22, 35]: 8.05
pKd [24, 35]: 5.85

Sequence: ILIGFLVLWI
pKd [22, 33]: 7.01
pKd [24, 33]: 5.52

Sequence: ILLKATLLAV
pKd [22, 36]: 8.65
pKd ([23]; source organism: Dengue virus 1 Brazil/97-11/1997): 7.74
pKd [25]: 8.66
pKd [24, 36]: 6.50

Sequence: IMANRAQVL
pKd [7, 37]: ≤ 4.70
pKd [9, 37]: ≤ 4.70
pKd [11, 37]: ≤ 4.70
pKd [12, 37]: ≤ 4.70
pKd [14, 37]: 6.48
pKd [15, 37]: ≤ 4.70
pKd [26]: ≤ 4.70
pKd [27]: ≤ 4.70
pKd [18, 37]: ≤ 4.70
pKd [19, 37]: ≤ 4.70
pKd [20, 37]: ≤ 4.70
pKd [21, 37]: ≤ 4.70
